These results are taken from paper PMC6318248, “Oligomerisation of Synaptobrevin-2 Studied by Native Mass Spectrometry and Chemical Cross-Linking” (Journal of the American Society for Mass Spectrometry, 2018).

Where “and” joins values, the source holds several entries; their conditions need not be identical. Equal entries are not always repeated. Where two headings read alike, the source gives them in different places.

Usually stoichiometry N stands for a count of units in the complex or per binding partner.

In data set [1] the target is Synaptobrevin-2, full-length protein Syb(1-116) (Rattus norvegicus) (UniProt P63045). Put plainly: cross-linking; Syb(1-116) in solution (chaps), 10 μM and 100 μM protein, BS3 (83-166 μM at 100 μM protein), 1 h at 25 °C; Coomassie gel and western blot; cross-linked peptides by LC-MS/MS. (In general: A western blot detects proteins with antibodies after separation by electrophoresis.)

The target is the same in data set [2]. The description is as above. This is another data set of the same source.
Data set [3] concerns the molecule itself. Briefly: cross-linking; 650 μM Syb(49-96), 180 and 250 μM BS3, 1 h at 25 °C; Coomassie gel and western blot; cross-linked peptides by LC-MS/MS.
Data set [4] deals with the molecule itself. Put plainly: native MS; Syb(49-96) at 10 μM, 200 mM ammonium acetate pH 7.0.
Data set [5] deals with the molecule itself. Briefly: ion mobility mass spectrometry; Syb(49-96), nESI, home-built drift-tube instrument, helium buffer gas, soft conditions; limited transmission for high m/z.

Regarding “Synaptobrevin-2, full-length protein Syb(1-116) (from UniProt P63045 1-116) (natural protein)”, the stoichiometry N in data set [1] was less than 6; in data set [2] it was 2 and < 5.

B1: Synaptobrevin-2, C-terminal fragment of the cytosolic domain Syb(49-96) (domain or fragment, Rattus norvegicus, UniProt P63045 49-96, looked up)
chain: NVDKVLERDQKLSELDDRADALQAGASQFETSAAKLKRKYWWKNLKMM
notes: Synaptobrevin-2, Rattus norvegicus, UniProt P63045, residues 49-96 (C-terminal half of the SNARE motif and the juxtamembrane domain); Residual residues of the thrombin cleavage site stay at the N-terminus (measured mass 6045 Da); Plasmid was a gift from R. Jahn; source: E. coli BL21 (DE3), purified (Ni2+ IMAC, thrombin cleavage, reversed IMAC, SEC without detergent); not shown: His-tag, …
As to B1, the “stoichiometry N” value was not above 10 in data set [3], 2 in data set [4] and not above 3 in data set [5].
